Target: TSLP (M29-130), longer subunit of the PCSK-generated heterodimeric TSLP (human, UniProt Q969D9 29-130)
Assay: MALDI-TOF MS with and without DTT

KVTTNKCLEQVSQLQGLWRRFNRPLLKQQ (peptide, UniProt Q969D9 131-159, looked up) [TSLP (131-159), shorter subunit of the truncated thymic stromal lymphopoietin]: binds.
